The values below come from patent CN112646041A.

In this assay the target is 人CD64 ECD-his抗原(SINO BIOLOGICAL，货号:10256-H08H) (human) (UniProt P12314). Kind of assay: ELISA, antibody coated at 67 to 0.0043 nM, CD64 ECD-his at 1 μg/mL.

Turning to hIgG1对照组(SIGMA，货号I4506) (antibody), the EC50 came out at 1.32 nM.
